1 substance from patent US20120141537A1 can be followed below.

Test in all cases: cell-based or functional assay
Assay [1] deals with H-2K^b wild type complexed with SIINFEKL (SEQ ID NO:1) (mouse; chicken) (UniProt P01901).
In assay [2] the target is H-2K^b wild type complexed with Q7 peptide SIINFEQL (SEQ ID NO:2) (mouse) (UniProt P01901).
Assay [3] deals with K^bm3 complexed with Q7 peptide (SEQ ID NO:2) (mouse) (UniProt P01901).

For OT-1 T cell receptor (TCR), the figures for the Day 14 Diabetes in B6-RIP-OVA mice given naive OT-1 spleen cells and peptide-pulsed RMAS cells in assay [1], in assay [2] and in assay [3] were 0 of 2 mice, 0 of 4 mice and 0 of 4 mice, respectively. Besides, the results for the Day 21 Diabetes after day 15 challenge with TMEV-SIINFEKL in assay [1], in assay [2] and in assay [3] were 2 of 2 mice, 0 of 4 mice and 3 of 4 mice, respectively. Moreover, in assay [3], the diabetes (>300 mg/dL blood glucose) after TMEV-L/OVA challenge on day 15 (FIG. 4) was 65 % of mice.
